In publication PMC3271731 (Nature, 2011):
Like-named read-outs stand apart in the source and are kept apart here.

B1: Pseudomonas aeruginosa 3-methylcrotonyl-CoA carboxylase β subunit (enzyme, UniProt Q9I297 1-535, looked up)
chain: MAILHTQINPRSAEFAANAATMLEQVNALRTLLGRIHEGGGSAAQARHSARGKLLVRERINRLLDPGSPFLELSALAAHEVYGEEVAAAGIVAGIGRVEGVECMIVGNDATVKGGTYYPLTVKKHLRAQAIALENRLPCIYLVDSGGANLPRQDEVFPDREHFGRIFFNQANMSARGIPQIAVVMGSCTAGGAYVPAMSDETVMVREQATIFLAGPPLVKAATGEVVSAEELGGADVHCKVSGVADHYAEDDDHALAIARRCVANLNWRKQGQLQCRAPRAPLYPAEELYGVIPADSKQPYDVREVIARLVDGSEFDEFKALFGTTLVCGFAHLHGYPIAILANNGILFAEAAQKGAHFIELACQRGIPLLFLQNITGFMVGQKYEAGGIAKHGAKLVTAVACARVPKFTVLIGGSFGAGNYGMCGRAYDPRFLWMWPNARIGVMGGEQAAGVLAQVKREQAERAGQQLGVEEEAKIKAPILEQYEHQGHPYYSSARLWDDGVIDPAQTREVLALALSAALNAPIEPTAFGVFRM
B2: Pseudomonas aeruginosa 3-methylcrotonyl-CoA carboxylase α subunit (enzyme)
chain: MNPDYRSIQRLLVANRGEIACRVMRSARALGIGSVAVHSDIDRHARHVAEADIAVDLGGAKPADSYLRGDRIIAAALASGAQAIHPGYGFLSENADFARACEEAGLLFLGPPAAAIDAMGSKSAAKALMEEAGVPLVPGYHGEAQDLETFRREAGRIGYPVLLKAAAGGGGKGMKVVEREAELAEALSSAQREAKAAFGDARMLVEKYLLKPRHVEIQVFADRHGHCLYLNERDCSIQRRHQKVVEEAPAPGLGAELRRAMGEAAVRAAQAIGYVGAGTVEFLLDERGQFFFMEMNTRLQVEHPVTEAITGLDLVAWQIRVARGEALPLTQEQVPLNGHAIEVRLYAEDPEGDFLPASGRLMLYREAAAGPGRRVDSGVREGDEVSPFYDPMLAKLIAWGETREEARQRLLAMLAETSVGGLRTNLAFLRRILGHPAFAAAELDTGFIARHQDDLLPAPQALPEHFWQAAAEAWLQSEPGHRRDDDPHSPWSRNDGWRSALARESDLMLRCRDERRCVRLRHASPSQYRLDGDDLVSRVDGVTRRSAALRRGRQLFLEWEGELLAIEAVDPIAEAEAAHAHQGGLSAPMNGSIVRVLVEPGQTVEAGATLVVLEAMKMEHSIRAPHAGVVKALYCSEGELVEEGTPLVELDENQA
modifications: biotinylated Lys681 (numbered by the equivalent residue of HsMCC)

Legend:
[1] = target: the molecule itself; test: crystal structure
[2] = target: the molecule itself; test: crystal structure; remark: listed apart in the source

Protein | stoichiometry N [1] | stoichiometry N [2]
B1 | 6 | –
B2 | – | 3
